From paper PMC13326754

Legend:
[1] = test system: U2AF1alpha (Fritillaria borealis); test: EMSA; settings: 330 nM; single U2AF1; never exceeded 5% bound; EMSA: 20 mM Hepes, 0.1 M NaCl, 5% glycerol, 0.5% Tween-20, pH 7.8, 50 ng/ul BSA, 0.5 mM TCEP, 0.5 mM EDTA; 1 h on ice; 6% PAGE 0.5x TBE at 4 C
[2] = test system: U2AF1beta (Fritillaria borealis); test: EMSA; settings: 330 nM; single U2AF1; never exceeded 5% bound; EMSA: 20 mM Hepes, 0.1 M NaCl, 5% glycerol, 0.5% Tween-20, pH 7.8, 50 ng/ul BSA, 0.5 mM TCEP, 0.5 mM EDTA; 1 h on ice; 6% PAGE 0.5x TBE at 4 C
[3] = target: GST-U2AF1α (Fritillaria borealis U2AF small subunit, paralog α) (Fritillaria borealis); test: pull-down; GST-U2AF1 baits co-expressed with U2AF2-V5 in HEK293T cells; glutathione beads; washes under increasing salt concentration; western blot for V5 and GST

excess protein bound on glutathione beads relative to U2AF2β [3] | Substance | binding signal [1] | binding signal [2]
– | GGGCUGUCCUCUUUUUUUUUUCAGGCGUCU [ORN.PyU] | < 5 % bound | < 5 % bound
10 to 35% | U2AF2α-V5 (Fritillaria borealis U2AF large subunit, paralog α, V5/6xHis tagged) (natural protein) | – | –
– | GGGUCGCUUCUCCCCCCCCCUAGGCGUCU [ORN.PyC] | < 5 % bound | < 5 % bound
